# T1: human OX40 on PG-Jurkat-hOX40-NF-kB cells (human, UniProt P43489 29-277)
# T1 sequence (looked up): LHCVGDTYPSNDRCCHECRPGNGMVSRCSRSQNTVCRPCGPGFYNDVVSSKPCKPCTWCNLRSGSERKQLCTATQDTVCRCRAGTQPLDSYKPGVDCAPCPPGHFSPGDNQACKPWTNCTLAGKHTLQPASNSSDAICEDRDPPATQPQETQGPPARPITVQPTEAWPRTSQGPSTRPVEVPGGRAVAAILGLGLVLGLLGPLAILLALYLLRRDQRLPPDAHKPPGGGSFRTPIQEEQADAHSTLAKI
# B1: antibody M-KF (antibody, human IgG1, kappa, V domains shown)
# VH: QVQLVESGGGVVQPGESLRLSCAASGFTFSSYGMHWVRQAPGKGLEWVAVIWEDGSNQYYADSVKGRFTISRDNSKNTLYLQMNSLRAEDTAVYYCAKDNQDTSPDVGIDYWGQGTLVTVSS
# VL: DIQMTQSPSSLSASVGDRVTITCRASQNISPFLNWYQQKPGKAPKLLIYAAVGLQSGVPSRFSGSGSGTDFTLTISSLQPEDFATYYCQQYTDYPLTFGGGTKVEIKR
# notes: Expressed in CHO-BAT-KF cells (alpha-(1,6)-fucosyltransferase knocked out); also called anti-OX40 antibody
# What was measured:
# [1] = target: T1, human OX40 on PG-Jurkat-hOX40-NF-kB …; experiment: cell-based or functional assay
# [2] = target: T1, human OX40 on PG-Jurkat-hOX40-NF-kB …; experiment: flow cytometry competition against OX40L-mFc on PG-Jurkat-OX40-NF-kB cells; reference antibody KHK4083
# [3] = target: T1, human OX40 on PG-Jurkat-hOX40-NF-kB …; experiment: flow cytometry competition: antibody titrated against OX40L-mFc (1.5 ug/mL) on PG-Jurkat-OX40-NF-kB cells, anti-mFc APC detection
binder,measurement,setting,value
B1,IC50 of blocking OX40L-mFc-induced NF-kB luciferase reporter signal (RLU) in PG-Jurkat-OX40-NF-kB cells,[1],0.095 nM
same,fold lower IC50 than antibody KHK4083 in the NF-kB luciferase reporter assay,[1],4.8 fold
same,fold lower IC50 than antibody KHK4083,[2],2.8 fold
same,IC50,[3],0.85 nM
